Results taken from PMC5247705.

Legend:
[1] = target: rTLR5^N14, tag-free (zebrafish TLR5 LRRNT-LRR14 fused to the C-terminal fragment of hagfish variable lymphocyte receptor) (zebrafish | hagfish) (UniProt B3DIN1); assay: SEC; purified flagellin and rTLR5^N14 incubated at 18 °C for 30 minutes; Superdex 200 10/300 column; elution monitored at 222 nm
[2] = target: rTLR5^N14, tag-free (zebrafish TLR5 LRRNT-LRR14 fused to the C-terminal fragment of hagfish variable lymphocyte receptor) (zebrafish | hagfish) (UniProt B3DIN1); assay: native gel or EMSA; purified flagellin and rTLR5^N14 incubated at 18 °C for 30 minutes; native PAGE on 6% polyacrylamide gels at room temperature for 1.5 hours at 100 V
[3] = target: human Toll-like receptor 5 on HEK293^TLR5 reporter cells (human) (UniProt O60602)
UniProt O60602, sequence (O60602 21-858): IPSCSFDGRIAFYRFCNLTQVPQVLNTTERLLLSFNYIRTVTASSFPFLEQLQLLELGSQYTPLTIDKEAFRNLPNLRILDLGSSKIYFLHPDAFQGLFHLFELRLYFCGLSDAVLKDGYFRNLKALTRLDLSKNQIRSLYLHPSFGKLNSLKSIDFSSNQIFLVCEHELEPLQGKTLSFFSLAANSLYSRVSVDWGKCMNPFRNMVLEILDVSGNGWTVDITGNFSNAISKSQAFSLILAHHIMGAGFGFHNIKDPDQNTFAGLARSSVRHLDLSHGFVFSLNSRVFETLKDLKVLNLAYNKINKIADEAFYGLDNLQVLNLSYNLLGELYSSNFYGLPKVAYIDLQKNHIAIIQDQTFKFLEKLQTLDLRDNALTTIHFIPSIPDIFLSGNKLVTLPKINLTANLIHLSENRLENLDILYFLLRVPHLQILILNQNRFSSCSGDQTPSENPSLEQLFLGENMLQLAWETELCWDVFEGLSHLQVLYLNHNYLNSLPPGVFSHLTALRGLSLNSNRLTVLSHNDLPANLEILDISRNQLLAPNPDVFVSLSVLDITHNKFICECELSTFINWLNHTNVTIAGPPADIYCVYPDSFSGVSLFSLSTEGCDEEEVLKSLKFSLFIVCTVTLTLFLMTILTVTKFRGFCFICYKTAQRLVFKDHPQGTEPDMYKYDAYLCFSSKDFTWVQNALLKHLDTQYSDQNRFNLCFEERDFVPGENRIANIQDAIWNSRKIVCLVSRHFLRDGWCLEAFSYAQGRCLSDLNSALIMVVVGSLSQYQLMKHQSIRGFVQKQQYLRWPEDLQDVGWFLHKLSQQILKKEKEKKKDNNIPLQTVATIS

[4] = target: rTLR5^N14-Avitag, biotinylated (zebrafish | hagfish) (UniProt B3DIN1); assay: ELISA; competitive binding assay: 96-well plates coated with 0.2 μg/ml bsflagellin in PBS; serially diluted soluble flagellin and 0.02 μg/ml biotinylated rTLR5^N14-Avitag incubated together for 48 hours at 4 °C in 1% BSA in PBS-T; detected with HRP-streptavidin
[5] = target: human Toll-like receptor 5 on HEK293^TLR5 reporter cells (human) (UniProt O60602); remark: listed apart in the source
[6] = target: human Toll-like receptor 5 on HEK293^TLR5 reporter cells (human) (UniProt O60602); remark: listed apart in the source
[7] = target: rTLR5^N14, tag-free (zebrafish TLR5 LRRNT-LRR14 fused to the C-terminal fragment of hagfish variable lymphocyte receptor) (zebrafish | hagfish) (UniProt B3DIN1); assay: crystal structure; bsflagellin^cent-rTLR5^N14 complex, 2.1 Å; crystallised in 17.5% (w/v) PEG 300, 50 mM sodium acetate, pH 4.4 at 18 °C

Substance | EC50 (pM) for TLR5 signaling; NF-κB-inducible SEAP reporter in HEK293^TLR5 cells [3] [pM] | IC50 [4] [nM] | further results
Bacillus subtilis flagellin (Hag), full-length wild type (from UniProt P02968 1-304) (natural protein) | 1.18 | 0.204 | stoichiometry N [1]: 1; stoichiometry N [2]: 1
Escherichia coli flagellin, full length (from UniProt P04949 1-498) (natural protein) | 1.13 | 0.517 | –
Pseudomonas aeruginosa flagellin, full length (from UniProt P21184 1-394) (natural protein) | 1.68 | 0.673 | –
Salmonella enterica subspecies enterica serovar Dublin flagellin, full length (from UniProt Q06971 1-505) (natural protein) | 0.57 | 0.289 | –
Shigella flexneri flagellin, full length (from UniProt Q08860 1-550) (natural protein) | 1.57 | 0.414 | –
bsflagellin E114A mutant (from UniProt P02968 1-304) (natural protein) | – | – | TLR5 activity in the HEK293^TLR5 reporter cell assay, fold reduction against bsflagellin^WT [5]: 6 fold
bsflagellin L93A mutant (from UniProt P02968 1-304) (natural protein) | – | – | TLR5 activity in the HEK293^TLR5 reporter cell assay, fold reduction against bsflagellin^WT [5]: 2 fold
bsflagellin R89A mutant (from UniProt P02968 1-304) (natural protein) | – | – | HEK293^TLR5 reporter cell activity, fold change of EC50 against bsflagellin^WT [6]: 49 fold; fold lower activity in the competitive rTLR5^N14-binding assay [4]: 10 fold
central region of bsflagellin (bsflagellin^cent; D1 residues 54-230) (from UniProt P02968 54-230) (domain or fragment) | – | – | stoichiometry N [7]: 1
